The labels stand for the following.
B1: Hairpin Ribozyme (parent)
chain: GUCCUCUUUCACGUGCGCGUGAAAGAGAGAAGUGAACCAGAGAAACACACGUUGUGGUAUAUUACCUGGUA

The variants in this data set derive from B1. Nature of the data set: self-cleavage, relative activity (ratio to wild type); higher = more cleavage; co-transcriptional.
As for G42A C65G, the self-cleavage turned out to be 0.132. As to G42A C65A, the self-cleavage came out at 0.0752. As to G42A C65U, the self-cleavage is 0.103. Consider A41U A45C, for which the self-cleavage was found to be 0.258. With A41U U60C the figure was 1.24. As to A41C C65G, the self-cleavage was 0.247.

A41C C65A: the self-cleavage is 0.782. With A41C C65U the figure was 0.513; with G40C G57A, 0.111; with A43U C66G, 0.138.

As for A43C U63G, the self-cleavage amounted to 0.117. The result for A41G U58G reads 1.1; that for A44C A59U, 0.103; that for A43U U62A, 0.227. For A43U U62G, the self-cleavage was determined as 0.0478. As to A43U U62C, the self-cleavage was 0.107. The result for G42U U53G reads 0.198; that for G42U U55C, 0.155; that for G42U U55G, 0.165. The result for A44G A64G reads 0.0828; that for A41C G56U, 0.0688.

Consider G42A A43G, for which the self-cleavage came out at 0.0927.

Turning to A43G C65U, the self-cleavage is 0.224. Turning to A44G C65U, the self-cleavage was 0.0694.

With A44G C65A, the self-cleavage was found to be 0.0664.

Take A41U G42A: the self-cleavage stood at 0.321. The result for A43U C48U reads 0.162; that for A43U C48G, 0.166; that for G40U G51U, 0.179. With G40U G51A the figure was 0.283; with G40C U67A, 0.0737.

Regarding A41G U67A, the self-cleavage came to 0.527. With A41G A49C the figure was 0.0938. For A41U A59U, the self-cleavage amounted to 0.241. For the variant G42U A49U, the self-cleavage came to 0.24. With A41G A44C, the self-cleavage amounted to 0.109. The result for G42A C50A reads 0.186; that for G40C U55C, 0.163. G40C U55G: the self-cleavage was found to be 0.138. As to G42A A64G, the self-cleavage was 0.141.

With G42A C46G, the self-cleavage is 0.106. As for G40U G57A, the self-cleavage stood at 0.128. As to A43G A64C, the self-cleavage is 0.191. On to G40U G68U, for which the self-cleavage amounted to 0.195. With G42A A49U the figure was 0.11; with G42A A49C, 0.168; with G40U A49U, 0.0847. The result for G40U A49C reads 0.118; that for A41G G56C, 0.165; that for G42C A49G, 0.244. With G42C A49U the figure was 0.155; with A43G U55A, 0.0267; with A43G U55C, 0.201.

In the case of A44G A59U, the self-cleavage is 0.155.

Take A44G A59C: the self-cleavage came to 0.179. With G40U G54C the figure was 0.155. Consider G40U G54A, for which the self-cleavage is 0.157. Take G42U U52A: the self-cleavage came out at 0.379. On to G42U U52C, for which the self-cleavage was 0.4. The result for G42U U52G reads 0.135. Take G40U A41U: the self-cleavage worked out at 0.221.

On to A43G G51U, for which the self-cleavage was determined as 0.245.

Consider A44G A71U, for which the self-cleavage was found to be 0.158. With A44C U52C the figure was 0.213.

For the variant A44C U52A, the self-cleavage came out at 0.0299. With A44C U53G the figure was 0.0885; with A44G A47G, 0.17; with G40U C50U, 0.11. For the variant A43G G54A, the self-cleavage was determined as 0.066. The result for A41U A47C reads 0.955; that for A44C U67C, 0.099; that for A44C U67G, 0.094.

Turning to G42A A45C, the self-cleavage is 0.0962.

For the variant A43C U67G, the self-cleavage was determined as 0.13. The result for A43C A44U reads 0.171. Consider A41C A59G, for which the self-cleavage was 0.152. With G42C A47C the figure was 0.149; with A41C A64C, 0.285. With G42C G57C the figure was 0.0624; with G42C G57A, 0.1. With A43U A49G the figure was 0.151. As for A43U U63G, the self-cleavage worked out at 0.307. The result for A41C U53A reads 0.786; that for A41U U70C, 1.42. With A44C C65G the figure was 0.17. The result for G42C C50U reads 0.0822; that for G42C C50G, 0.0792. A41U U67C: the self-cleavage was 0.456. With A41U A71U the figure was 1.15. On to G40U A45C, for which the self-cleavage stood at 0.103. In the case of G40U A45G, the self-cleavage came to 0.132. With G40U A45U the figure was 0.219.

A41C A47C: the self-cleavage was 0.468.

Turning to A41U C48U, the self-cleavage was 0.132. The result for A41U C48A reads 0.31; that for A44G C66U, 0.0408. With G40U A47U the figure was 0.131; with A44C A71G, 0.211; with G40U A43C, 0.165.

On to G42C A61C, for which the self-cleavage was 0.133. With G42A A44C the figure was 0.27; with G42A A44G, 0.201. With G42A A44U the figure was 0.207. In the case of G42A G56A, the self-cleavage came to 0.191. As to G42A G56U, the self-cleavage is 0.13. With G42C A64C, the self-cleavage was 0.252.

In the case of G42C A64U, the self-cleavage was found to be 0.0972. The result for A41U A43C reads 0.231; that for A41U A43G, 0.0919. With G42C U63A the figure was 0.18; with A43G G69U, 0.126. With G42C C65U the figure was 0.215. With G42C C65G, the self-cleavage stood at 0.117. For A41C U55G, the self-cleavage came out at 0.285. With A43U A61U the figure was 0.174.

G42A U62G: the self-cleavage came out at 0.154. The result for G42C A43C reads 0.137. On to G42U C66G, for which the self-cleavage is 0.155. With G42U C66U, the self-cleavage was found to be 0.232.

As to G42C U60G, the self-cleavage came to 0.211. With G42C U60A, the self-cleavage came out at 0.133.

A43C U70A: the self-cleavage stood at 0.0723.

As to A43G C50G, the self-cleavage stood at 0.133.

For the variant G40C U60C, the self-cleavage worked out at 0.135. The result for A41U A44U reads 0.161; that for A41G U70A, 0.97; that for G42U C48G, 0.134.

Turning to G40U A61C, the self-cleavage was 0.0593. As to G40U A61U, the self-cleavage was 0.132.

Turning to A41U G51A, the self-cleavage was 1.11.

Consider A43C U60C, for which the self-cleavage worked out at 0.196.

As for A41U A49U, the self-cleavage stood at 0.725. With G42A A47U the figure was 0.0842; with A41U U52G, 1.07; with A44C C50U, 0.15. Regarding A41G A59G, the self-cleavage stood at 0.17. With A41C C46U, the self-cleavage was determined as 0.0492.

In the case of A41C C46A, the self-cleavage is 0.0559. On to A43C A49C, for which the self-cleavage turned out to be 0.199.

On to A43C A49G, for which the self-cleavage was determined as 0. With A41G G42U, the self-cleavage was 0.236. As for A41C G54U, the self-cleavage worked out at 0.724. With A43C C48A the figure was 0.135; with A43U G57C, 0.17.

Turning to G40U G42C, the self-cleavage is 0.0925. In the case of A43U U67A, the self-cleavage is 0.0806. Turning to A43U U67G, the self-cleavage stood at 0.0666. With A41G G68A the figure was 0.55. The result for A43G A59U reads 0.157; that for A43G A59C, 0.153; that for A43U U70A, 0.145. With G42A the figure was 0.223; with G42C, 0.318; with G42U, 0.289.

As to G42A G68A, the self-cleavage stood at 0.14. With G42A G68C the figure was 0.15; with A41G C50G, 0.325; with A41G C50U, 0.385. With A43U G68C, the self-cleavage came to 0.106.

As for A41G U55A, the self-cleavage came out at 0.228.

As for A43G A61U, the self-cleavage is 0.169. With A43G A61G the figure was 0.188.

With A41U G56C, the self-cleavage was found to be 0.149. As to A43C C66A, the self-cleavage worked out at 0.0928. Turning to A41C A44U, the self-cleavage was determined as 0.154.

In the case of A41C A44G, the self-cleavage was 0.241.

On to A41G C65G, for which the self-cleavage was 1.13.

The values above are taken from the RNAGym collection of RNA variant scans (doi:10.7554/elife.80360).
